Assay results: US20150218239A1 (ARGENX, published 2015)
Numbering of substitutions follows the chain as printed. Names may count otherwise.

Experiments:
[1] = molecular target: T1, murine CD16-2 (Sino Biological Inc., 50036-M27H-B) (murine, UniProt A0A0B4J1G0 21-203, Probably biotinylated on a vendor tag (suffix -B); not given); experiment: ELISA on murine CD16-2, similar procedure to the hCD16a ELISA
T1 construct: Bought reagent, used in 'a similar experimental procedure' to the hCD16a ELISA; also called mCD16-2
T1 sequence: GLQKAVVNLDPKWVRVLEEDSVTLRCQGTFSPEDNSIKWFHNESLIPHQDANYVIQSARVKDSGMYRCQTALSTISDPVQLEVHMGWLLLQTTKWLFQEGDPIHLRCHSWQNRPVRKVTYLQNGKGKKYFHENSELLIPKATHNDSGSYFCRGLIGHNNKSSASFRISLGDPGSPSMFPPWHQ
Experimental: (§1) Specifically, a Maxisorp plate was coated with 100 ng/well of Neutravidin Biotin-binding Protein (ThermoScientific, 31000) and incubated overnight at 4° C. The following day, the plate was blocked with PBS+1% casein for 2 hours at room temperature. […] Binding to hCD16a was detected using an HRP-conjugated polyclonal goat anti-human Fc antibody (Jackson ImmunoResearch, 109-035-008) (incubation 1 hour at RT, dilution 1/50,000 in PBS+0.1% casein), followed by addition of […] room temperature-equilibrated TMB (SDT-reagents #s TMB). Plates were incubated for 10 minutes prior to addition of 100 μl 0.5N H₂SO₄ and OD450 nm measurement. EC50 values were determined using GraphPad Prism software.
Using a similar experimental procedure as described above, the binding affinity for murine CD16-2 (Sino Biological Inc., 50036-M27H-B) was determined.

[2] = molecular target: T2, biotinylated hCD16a (Sino Biological Inc., 10389-H27H1-B) (human, UniProt P08637 17-208, biotinylated); experiment: ELISA on biotinylated hCD16a captured on neutravidin; anti-human Fc-HRP detection
T2 construct: Bought reagent, captured on a neutravidin-coated plate; also called human CD16a
T2 sequence (P08637 17-208 limits assumed): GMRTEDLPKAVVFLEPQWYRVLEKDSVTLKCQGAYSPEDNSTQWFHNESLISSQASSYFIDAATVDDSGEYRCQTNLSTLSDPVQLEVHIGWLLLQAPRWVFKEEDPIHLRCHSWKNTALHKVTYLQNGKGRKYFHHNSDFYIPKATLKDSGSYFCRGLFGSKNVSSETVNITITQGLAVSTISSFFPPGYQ
Experimental: as §1

B1: Fc-Abdeg-POT (other)
chain: DKTHTCPPCPAPELLGGPSVFLFPPKPKDTLYITREPEVTCVVVDVSHEDPEVKFNWYVDGVEVHNAKTKPREEQYNSTYRVVSVLTVLHQDWLNGKEYKCKVSNKALPAPIEKTISKAKGQPREPQVYTLPPSRDELTKNQVSLTCLVKGFYPSDIAVEWESNGQPENNYKTTPPVLDSDGSFFLYSKLTVDKSRWQQGNVFSCSVMHEALKFHYTQKSLSLSPGK
modifications: afucosylated N-linked glycan (afucosylated form of Fc-Abdeg)
notes: also called afucosylated form of Fc-Abdeg; afucosylated variant
EC50 [1]: 11 nM
EC50 [2]: 13 nM
fold increase in affinity over fucosylated Fc-Abdeg [2]: > 30 fold

B2: Fc-Abdeg-S239D/I332E (other)
chain: B1 chain with S19D, I112E
notes: Fc-Abdeg variant
EC50 [2]: 6 nM
